Target: Bio-GFP-tagged KIF21A STALK (whole KIF21A stalk domain) (human)
Assay: single-molecule GFP counting (TIRF); HEK293T cell extracts with Bio-GFP-tagged constructs, molecules immobilised on coverslips, initial fluorescence intensities against monomeric GFP and dimeric EB1-GFP; room temperature

Bio-GFP-tagged KIF21A STALK (whole KIF21A stalk domain) (domain or fragment), sequence (Q7Z4S6 whole entry, the tested form may be a part): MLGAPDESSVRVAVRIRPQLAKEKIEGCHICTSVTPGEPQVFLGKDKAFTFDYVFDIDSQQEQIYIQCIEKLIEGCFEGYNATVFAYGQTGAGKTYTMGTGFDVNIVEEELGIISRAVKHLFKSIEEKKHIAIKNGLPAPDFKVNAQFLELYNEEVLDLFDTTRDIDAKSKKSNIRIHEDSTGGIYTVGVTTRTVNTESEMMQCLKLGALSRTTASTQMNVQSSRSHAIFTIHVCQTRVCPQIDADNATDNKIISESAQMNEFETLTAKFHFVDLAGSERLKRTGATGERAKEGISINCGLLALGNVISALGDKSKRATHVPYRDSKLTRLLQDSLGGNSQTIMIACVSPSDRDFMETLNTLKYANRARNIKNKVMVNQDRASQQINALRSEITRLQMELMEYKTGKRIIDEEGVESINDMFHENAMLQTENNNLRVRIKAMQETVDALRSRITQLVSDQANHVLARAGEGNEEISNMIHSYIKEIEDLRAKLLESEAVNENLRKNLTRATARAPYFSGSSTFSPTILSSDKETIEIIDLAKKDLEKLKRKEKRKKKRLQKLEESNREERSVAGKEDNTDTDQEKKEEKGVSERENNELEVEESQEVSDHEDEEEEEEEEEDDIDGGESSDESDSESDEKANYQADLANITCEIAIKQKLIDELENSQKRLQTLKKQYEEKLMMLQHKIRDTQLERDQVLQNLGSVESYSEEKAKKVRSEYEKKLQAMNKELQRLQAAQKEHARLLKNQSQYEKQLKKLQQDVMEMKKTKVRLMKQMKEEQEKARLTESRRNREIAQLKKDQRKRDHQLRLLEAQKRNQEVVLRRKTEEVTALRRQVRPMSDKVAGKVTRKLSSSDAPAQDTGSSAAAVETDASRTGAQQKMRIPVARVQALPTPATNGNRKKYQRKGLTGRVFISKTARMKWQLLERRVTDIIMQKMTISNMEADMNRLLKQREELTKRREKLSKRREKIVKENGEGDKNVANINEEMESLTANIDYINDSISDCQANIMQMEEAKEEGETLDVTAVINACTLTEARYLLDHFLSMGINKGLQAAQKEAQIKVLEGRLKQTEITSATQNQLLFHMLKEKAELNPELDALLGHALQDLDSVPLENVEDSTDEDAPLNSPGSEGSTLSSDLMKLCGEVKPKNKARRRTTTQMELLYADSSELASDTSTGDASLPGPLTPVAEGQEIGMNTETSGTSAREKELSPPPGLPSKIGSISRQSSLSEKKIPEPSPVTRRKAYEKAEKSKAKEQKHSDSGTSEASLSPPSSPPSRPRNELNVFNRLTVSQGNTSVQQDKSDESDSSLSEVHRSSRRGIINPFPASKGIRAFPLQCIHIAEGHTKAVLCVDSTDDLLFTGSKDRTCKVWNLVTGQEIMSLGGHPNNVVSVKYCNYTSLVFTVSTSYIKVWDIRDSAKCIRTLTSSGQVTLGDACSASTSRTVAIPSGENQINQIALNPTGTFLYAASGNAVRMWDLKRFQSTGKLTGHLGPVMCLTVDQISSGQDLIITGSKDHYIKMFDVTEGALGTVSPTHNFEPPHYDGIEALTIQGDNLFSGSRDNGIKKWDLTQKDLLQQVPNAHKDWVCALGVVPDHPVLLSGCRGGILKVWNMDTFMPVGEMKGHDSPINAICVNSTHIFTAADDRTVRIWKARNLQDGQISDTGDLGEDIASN

stoichiometry N: 2
Substance: Bio-GFP-tagged KIF21A STALK (whole KIF21A stalk domain) (domain or fragment)
